Target: H6GY-titin I28 protein
Assay: sedimentation equilibrium, 3 loading concentrations, ten fold molar excess of Ni2+; Ni(II)-mediated self-association (monomer-dimer)

- Kd: 200 µM
Substance: H6GY-titin I28 protein

Reference: patent publication US20100267005A1
